The subject of the data set is Tal7 (His-Tal7) (Xanthomonas oryzae pv. oryzicola RS105). Nature of the data set: MST.

The values that follow come from publication PMC5505973.

In the case of Os09g29100 promoter MST fragment, the Kd was 2260 nM.

Os12g42970 promoter MST fragment had a Kd of 2930 nM.

As a reminder, the Kd is the equilibrium constant for the complex coming apart. Read a low Kd as higher affinity.
